Measured values as given in patent US20050048070A1 (published 2005).

Legend:
Test in all cases: Western blot of SDS-PAGE-separated K8 GST fusion proteins, stained with COU-1 alone
[1] = target: T1, K8 (1-299)
T1 construct: not shown: N-terminal GST and its linker (modified pGEX-2T)
T1 chain: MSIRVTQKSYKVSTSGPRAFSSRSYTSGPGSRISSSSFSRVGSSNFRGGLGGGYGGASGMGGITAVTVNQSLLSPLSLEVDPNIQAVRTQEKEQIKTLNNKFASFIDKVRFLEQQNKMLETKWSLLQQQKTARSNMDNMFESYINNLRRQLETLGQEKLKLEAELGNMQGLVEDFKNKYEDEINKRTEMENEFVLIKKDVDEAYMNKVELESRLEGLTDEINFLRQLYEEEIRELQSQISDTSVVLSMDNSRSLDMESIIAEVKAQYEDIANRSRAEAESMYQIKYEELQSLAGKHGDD

[2] = target: T2, K8 (1-342)
T2 construct: not shown: N-terminal GST and its linker (modified pGEX-2T)
T2 chain: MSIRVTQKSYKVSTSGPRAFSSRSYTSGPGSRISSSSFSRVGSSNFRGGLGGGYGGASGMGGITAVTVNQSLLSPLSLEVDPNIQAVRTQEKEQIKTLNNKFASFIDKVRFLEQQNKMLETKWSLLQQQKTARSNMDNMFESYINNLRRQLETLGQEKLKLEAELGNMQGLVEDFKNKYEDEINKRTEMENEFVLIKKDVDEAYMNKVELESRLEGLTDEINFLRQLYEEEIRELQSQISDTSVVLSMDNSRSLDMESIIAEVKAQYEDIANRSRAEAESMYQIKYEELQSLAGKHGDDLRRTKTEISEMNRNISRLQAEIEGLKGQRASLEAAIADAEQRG

[3] = target: T3, K8 (1-352)
T3 construct: not shown: N-terminal GST and its linker (modified pGEX-2T)
T3 chain: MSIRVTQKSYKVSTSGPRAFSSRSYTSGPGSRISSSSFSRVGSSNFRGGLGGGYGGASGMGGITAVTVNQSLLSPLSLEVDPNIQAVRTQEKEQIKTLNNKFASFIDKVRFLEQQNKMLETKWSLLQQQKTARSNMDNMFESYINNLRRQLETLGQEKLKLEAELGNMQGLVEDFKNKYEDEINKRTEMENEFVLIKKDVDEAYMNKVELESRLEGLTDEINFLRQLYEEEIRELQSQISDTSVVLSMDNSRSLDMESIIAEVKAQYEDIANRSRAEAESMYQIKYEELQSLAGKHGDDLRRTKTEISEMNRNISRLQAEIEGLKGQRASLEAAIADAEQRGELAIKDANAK

[4] = target: T4, K8 (1-367)
T4 construct: not shown: N-terminal GST and its linker (modified pGEX-2T)
T4 chain: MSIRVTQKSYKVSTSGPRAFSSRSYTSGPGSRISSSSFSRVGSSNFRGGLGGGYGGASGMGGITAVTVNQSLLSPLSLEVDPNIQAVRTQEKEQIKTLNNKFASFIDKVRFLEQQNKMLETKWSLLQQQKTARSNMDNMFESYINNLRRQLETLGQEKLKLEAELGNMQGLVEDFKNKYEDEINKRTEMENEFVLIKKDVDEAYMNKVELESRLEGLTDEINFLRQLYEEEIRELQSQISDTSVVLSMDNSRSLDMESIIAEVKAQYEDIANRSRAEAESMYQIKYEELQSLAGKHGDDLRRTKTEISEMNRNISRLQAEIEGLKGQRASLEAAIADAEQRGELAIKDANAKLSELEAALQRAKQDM

[5] = target: T5, K8 (1-403)
T5 construct: not shown: N-terminal GST and its linker (modified pGEX-2T)
T5 chain: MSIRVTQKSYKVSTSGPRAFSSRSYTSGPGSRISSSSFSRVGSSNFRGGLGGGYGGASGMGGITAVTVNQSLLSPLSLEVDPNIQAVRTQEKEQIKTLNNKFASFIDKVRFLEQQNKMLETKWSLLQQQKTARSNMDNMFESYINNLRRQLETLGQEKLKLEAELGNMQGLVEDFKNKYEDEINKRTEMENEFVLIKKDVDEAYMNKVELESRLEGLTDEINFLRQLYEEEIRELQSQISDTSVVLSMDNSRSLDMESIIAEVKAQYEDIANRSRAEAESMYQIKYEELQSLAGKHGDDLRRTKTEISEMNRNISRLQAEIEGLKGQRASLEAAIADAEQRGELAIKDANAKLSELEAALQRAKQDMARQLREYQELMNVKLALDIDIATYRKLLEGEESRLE

[6] = target: T6, K8 (1-85)
T6 construct: also called K8(1-85) GST fusion protein; not shown: N-terminal GST carrier (modified pGEX-2T) and its linker
T6 chain: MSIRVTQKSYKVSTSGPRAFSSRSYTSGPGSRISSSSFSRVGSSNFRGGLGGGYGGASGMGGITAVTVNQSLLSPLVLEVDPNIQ

[7] = target: T7, K8 (1-129)
T7 construct: not shown: N-terminal GST carrier (modified pGEX-2T) and any linker
T7 chain: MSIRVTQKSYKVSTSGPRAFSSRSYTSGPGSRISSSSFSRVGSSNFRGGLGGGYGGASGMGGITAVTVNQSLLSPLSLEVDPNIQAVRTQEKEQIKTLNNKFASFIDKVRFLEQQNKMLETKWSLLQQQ

[8] = target: T8, K8 (1-233)
T8 construct: not shown: N-terminal GST carrier (modified pGEX-2T) and any linker
T8 chain: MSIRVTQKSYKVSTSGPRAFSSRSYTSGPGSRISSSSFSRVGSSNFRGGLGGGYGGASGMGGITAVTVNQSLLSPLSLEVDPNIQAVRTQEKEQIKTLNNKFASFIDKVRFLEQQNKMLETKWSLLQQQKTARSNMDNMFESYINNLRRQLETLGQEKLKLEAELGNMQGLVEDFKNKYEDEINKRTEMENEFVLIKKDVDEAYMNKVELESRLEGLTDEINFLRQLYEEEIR

[9] = target: T9, K8(1-65) GST fusion protein (human, UniProt P05787 2-66)
T9 construct: Alone, not complexed; not shown: glutathione S-transferase (GST) fusion partner, modified pGEX-2T vector
T9 sequence: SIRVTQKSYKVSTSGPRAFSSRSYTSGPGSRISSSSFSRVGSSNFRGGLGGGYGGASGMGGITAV

B1: human monoclonal IgM antibody COU-1 (antibody, V domains shown)
VH: GAEVKKPGASVKVSCKASDYTFSSYYMHWVRQAPGQGLEWMGIINPSGGSTSYAQKFQGRVTMTRDTSTNTVYMELSSLRSEDTAVYYCARDQVVVAATLSNYGMDVWGQGTTVTVSS
VL: ELTQSPGTLSLSPGERATLSCRASQSVSSSYLAWYQQKPGQAPRLLIYDASNRATGIPARFSGSGSGTDFTLTISSLEPEDFAVYYCQQGTNWGIAFGQGTRLDIKR
notes: Human IgM with kappa light chain, secreted by hybridoma B9165 (ECACC 87040201), purified from culture supernatant; also called HMab COU-1; HuMab COU-1
B1: no binding (tested: 5 µg/ml COU-1 (P-0279)) [1]; no binding (tested: 5 µg/ml COU-1 (P-0279)) [2]; no binding (tested: 5 µg/ml COU-1 (P-0279)) [3]. B1: no binding (tested: 5 µg/ml COU-1 (P-0279)) [4]; no binding (tested: 5 µg/ml COU-1 (P-0279)) [5]; no binding (tested: 5 µg/ml COU-1 (P-0279)) [6]. B1: no binding (tested: 5 µg/ml COU-1 (P-0279)) [7]; no binding (tested: 5 µg/ml COU-1 (P-0279)) [8]; no binding (tested: 5 µg/ml COU-1 (P-0279)) [9].
